This is an account of results in patent US20180009843A1.

No end group written: not given here.

In series [1] the target is T cell receptors of CD4+ NKT cells from the spleen of BALB/c mice given intranasal Der p 1. The series can be described thus: tetramer staining of spleen CD4+ T cells, facs.
Series [2] has as its target T1, CD1d molecule expressed on JAWS2 cells, P11609.
T1 chain: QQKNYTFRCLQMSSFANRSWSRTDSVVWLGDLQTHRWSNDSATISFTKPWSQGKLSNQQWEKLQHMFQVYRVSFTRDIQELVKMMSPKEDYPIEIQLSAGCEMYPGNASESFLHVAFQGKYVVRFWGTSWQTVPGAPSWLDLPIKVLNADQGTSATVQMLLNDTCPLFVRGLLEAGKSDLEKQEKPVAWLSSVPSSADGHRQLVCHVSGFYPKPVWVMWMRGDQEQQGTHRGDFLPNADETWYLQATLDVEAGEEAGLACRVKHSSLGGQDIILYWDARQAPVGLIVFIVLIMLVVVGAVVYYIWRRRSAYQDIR

Series [3] deals with T cell receptors of NKT cells among spleen CD4+ T cells of hemophilia A mice immunized with Factor VIII. The series can be described thus: fluorochrome-labeled tetramer, 30 minutes at 4 C, Facs.

In series [1], HSAIAAVI (peptide-MHC, part only; not given: CD1d and beta-2 microglobulin, part only) [CD1d tetramers loaded with peptide of SEQ ID14] came in with a percentage of cells stained with the tetramers of 10%. On the same count and under the same terms, with FSGVAAT (peptide-MHC, part only; not given: CD1d and beta-2 microglobulin, part only) [CD1d tetramers loaded with peptide of SEQ ID13] the figure was 10%; with YPYVVIL (peptide-MHC, part only; not given: CD1d and beta-2 microglobulin, part only) [CD1d tetramers loaded with peptide of SEQ ID15], 10%.

B1: Der p 1 in natural sequence (SEQ ID17) (protein)
chain: TNACSINGNAPAEIDLRQMRTVTPIRMQGGCGSCWAFSGVAATESAYLAYRNQSLDLAEQELVDCASQHGCHGDTIPRGIEYIQHNGVVQESYYRYVAREQSCRRPNAQRFGISNYCQIYPPNVNKIREALAQTHSAIAVIIGIKDLDAFRHYDGRTIIQRDNGYQPNYHAVNIVGYSNAQGVDYWIVRNSWDTNWGDNGYGYFAANIDLMMIEEYPYVVIL
On to B1, for which the “production of cytokines such as IFN-gamma and IL-4 as markers of NKT activation” value in series [2] is “a significant production of cytokines was present”.

B2: mutated Der p 1 (SEQ ID16) (protein)
chain: TNACSINGNAPAEIDLRQMRTVTPIRMQGGCGSCWASSGVAATESAYLAYRNQSLDLAEQELVDCASQHGCHGDTIPRGIEYIQHNGVVQESYYRYVAREQSCRRPNAQRFGISNYCQIYPPNVNKIREALAQTSSAIAVIIGIKDLDAFRHYDGRTIIQRDNGYQPNYHAVNIVGYSNAQGVDYWIVRNSWDTNWGDNGYGYFAANIDLMMIEESPYVVIL
For the molecule B2, the “production of IFN-gamma and IL-4 taken as an indication of NKT activation” value in series [2] was “NKT cells obtained from mice immunized with natural sequence Der p 1 failed to be activated when incubated in the presence of JAWS2 cells loaded with mutated Der p 1”.

FCHISSH (peptide-MHC, part only; not given: peptide flanks, CD1d, beta-2 microglobulin, part only, also: loaded on fluorochrome-labelled CD1d tetramers) [CD1d tetramers loaded with peptide of SEQ ID1 (44pept)] came in with a % of NKT cells recognizing the tetramer in series [3] below 45%.
